In the assay the target is BamA^Eco (Escherichia coli) (UniProt P0A940). The assay can be described thus: flow cytometry on cells. The following applies: remark: other sources report otherwise. In general terms: A flow cytometer gives signals particle by particle.

CdiA^EC93, Q3YL96 33-3132 registered a percent of target cells bound to inhibitor cells of 73%.

The values are drawn from article PMC4191985.
